Results taken from article PMC10016618 (Nature cell biology, 2021).

Legend:
Kif7-DM (1-543aa) = molecular target: T1, Kif7-DM (1-543aa) (human, UniProt Q2M1P5 1-543); assay: BLI
T1 sequence (looked up): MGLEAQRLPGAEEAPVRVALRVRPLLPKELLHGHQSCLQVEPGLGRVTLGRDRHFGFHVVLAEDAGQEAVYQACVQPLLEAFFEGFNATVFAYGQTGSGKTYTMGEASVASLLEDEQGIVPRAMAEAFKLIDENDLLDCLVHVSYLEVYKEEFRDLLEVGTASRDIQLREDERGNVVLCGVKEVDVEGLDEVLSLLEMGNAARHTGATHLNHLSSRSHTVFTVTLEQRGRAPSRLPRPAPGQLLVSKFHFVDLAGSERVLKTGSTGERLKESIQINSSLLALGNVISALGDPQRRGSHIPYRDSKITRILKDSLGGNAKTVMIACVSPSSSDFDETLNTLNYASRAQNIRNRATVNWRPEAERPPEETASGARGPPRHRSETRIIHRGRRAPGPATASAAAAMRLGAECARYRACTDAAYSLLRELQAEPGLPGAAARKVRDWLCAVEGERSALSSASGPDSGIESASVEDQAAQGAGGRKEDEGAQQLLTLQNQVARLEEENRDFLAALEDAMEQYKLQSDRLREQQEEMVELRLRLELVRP

Kif7-DM(E502A)-GFP = molecular target: T2, Kif7-DM(E502A)-GFP (human, UniProt Q2M1P5 1-543, E502A); assay: TIRF microscopy, recruitment to immobilised microtubules
T2 sequence (looked up): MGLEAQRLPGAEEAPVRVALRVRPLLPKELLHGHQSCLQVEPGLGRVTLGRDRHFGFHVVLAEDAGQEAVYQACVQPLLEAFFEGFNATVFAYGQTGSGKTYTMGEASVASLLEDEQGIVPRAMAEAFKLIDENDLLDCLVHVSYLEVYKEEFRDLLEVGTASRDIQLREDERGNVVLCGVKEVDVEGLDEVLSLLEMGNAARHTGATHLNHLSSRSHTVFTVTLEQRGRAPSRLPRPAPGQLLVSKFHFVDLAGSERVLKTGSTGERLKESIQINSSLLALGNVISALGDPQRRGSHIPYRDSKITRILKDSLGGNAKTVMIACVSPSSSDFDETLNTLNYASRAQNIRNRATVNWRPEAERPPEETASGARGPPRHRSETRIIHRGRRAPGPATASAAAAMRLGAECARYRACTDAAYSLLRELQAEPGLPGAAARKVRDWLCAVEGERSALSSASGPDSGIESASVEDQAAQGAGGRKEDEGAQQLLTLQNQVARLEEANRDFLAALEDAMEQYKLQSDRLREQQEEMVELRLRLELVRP

Kif7-DM-GFP (1-543aa) = molecular target: T3, Kif7-DM-GFP (1-543aa) (human, UniProt Q2M1P5 1-543); assay: as above
T3 sequence (looked up): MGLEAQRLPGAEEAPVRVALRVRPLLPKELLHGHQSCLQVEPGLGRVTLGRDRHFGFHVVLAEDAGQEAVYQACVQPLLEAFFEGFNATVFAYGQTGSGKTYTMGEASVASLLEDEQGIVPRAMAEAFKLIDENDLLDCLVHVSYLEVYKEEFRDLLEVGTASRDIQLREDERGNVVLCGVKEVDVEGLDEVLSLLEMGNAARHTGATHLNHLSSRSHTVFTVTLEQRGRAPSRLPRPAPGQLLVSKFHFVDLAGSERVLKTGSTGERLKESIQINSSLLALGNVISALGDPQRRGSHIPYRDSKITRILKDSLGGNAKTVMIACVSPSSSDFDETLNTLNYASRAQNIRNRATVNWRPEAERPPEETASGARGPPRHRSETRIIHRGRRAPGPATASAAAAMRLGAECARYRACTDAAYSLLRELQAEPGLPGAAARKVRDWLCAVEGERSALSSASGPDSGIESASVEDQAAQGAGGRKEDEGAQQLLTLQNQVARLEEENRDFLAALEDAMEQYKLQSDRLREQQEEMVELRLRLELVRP

Kd (Kif7-DM (1-543aa)): 99 ± 23 nM
binding result (Kif7-DM(E502A)-GFP): binds
fold enrichment of Gli2-ZF on microtubules over no kinesin control (Kif7-DM-GFP (1-543aa)): ~9 fold
B1: Gli2-ZF-SNAP (domain or fragment, human, UniProt P10070 418-604, looked up)
chain: KEDLDRDDCKQEAEVVIYETNCHWEDCTKEYDTQEQLVHHINNEHIHGEKKEFVCRWQACTREQKPFKAQYMLVVHMRRHTGEKPHKCTFEGCSKAYSRLENLKTHLRSHTGEKPYVCEHEGCNKAFSNASDRAKHQNRTHSNEKPYICKIPGCTKRYTDPSSLRKHVKTVHGPDAHVTKKQRNDVH
modifications: Alexa-647 label (TIRFM assays)
